{"source": "the Human Domainome abundance scans (Beltran et al. 2025)", "parents": {"B1": {"name": "LIM and senescent cell antigen-like-containing domain protein 2, residues 13 to 71; numbered along this chain, Q7Z4I7 (parent)", "chain": "AVCQRCQARFSPAERIVNSNGELYHEHCFVCAQCFRPFPEGLFYEFEGRKYCEHDFQML"}}, "note": "± gives the uncertainty stated by the source."}
{"variants_of": "B1", "experiment": "abundance fitness (aPCA) (normalised: wild type 0, dead -1); higher = more abundant; growth selection in yeast, the domain comes from the species named", "settings": "Homo sapiens"}
{"variant": "AVCQRCQARFSPAERIVNLNGELYHEHCFVCAQCFRPFPEGLFYEFEGRKYCEHDFQML", "abundance fitness": "-0.132 ± 0.071"}
{"variant": "AVCQRCQARFSPAERIVNQNGELYHEHCFVCAQCFRPFPEGLFYEFEGRKYCEHDFQML", "abundance fitness": "-0.068 ± 0.094"}
{"variant": "AVCQRCQARFSPAERIVNSNGALYHEHCFVCAQCFRPFPEGLFYEFEGRKYCEHDFQML", "abundance fitness": "0.079 ± 0.091"}
{"variant": "AVCQRCQARFSPAERIVNSNGMLYHEHCFVCAQCFRPFPEGLFYEFEGRKYCEHDFQML", "abundance fitness": "-0.093 ± 0.11"}
{"variant": "AVCQRCQARFSPAERIVNSNGCLYHEHCFVCAQCFRPFPEGLFYEFEGRKYCEHDFQML", "abundance fitness": "0.056 ± 0.1"}
{"variant": "AVCQRCQARFSPAERIVNSNGHLYHEHCFVCAQCFRPFPEGLFYEFEGRKYCEHDFQML", "abundance fitness": "0.101 ± 0.096"}
{"variant": "AVCQRCQARFSPAERIVNSNGSLYHEHCFVCAQCFRPFPEGLFYEFEGRKYCEHDFQML", "abundance fitness": "-0.093 ± 0.057"}
{"variant": "AVCQRCQARFSPAERIVNSNGILYHEHCFVCAQCFRPFPEGLFYEFEGRKYCEHDFQML", "abundance fitness": "-0.162 ± 0.1"}
{"variant": "AVCQRCQARFSPAERIVNSNGQLYHEHCFVCAQCFRPFPEGLFYEFEGRKYCEHDFQML", "abundance fitness": "0.216 ± 0.075"}
{"variant": "AVCQRCQARFSPAERIVNSNGKLYHEHCFVCAQCFRPFPEGLFYEFEGRKYCEHDFQML", "abundance fitness": "-0.01 ± 0.09"}
{"variant": "AVCQRCQARFSPAERIVNSNGFLYHEHCFVCAQCFRPFPEGLFYEFEGRKYCEHDFQML", "abundance fitness": "0.133 ± 0.12"}
{"variant": "AVCQRCQARFSPAERIVNSNGTLYHEHCFVCAQCFRPFPEGLFYEFEGRKYCEHDFQML", "abundance fitness": "-0.006 ± 0.075"}
{"variant": "AVCQRCQARFSPAERIVNSNGGLYHEHCFVCAQCFRPFPEGLFYEFEGRKYCEHDFQML", "abundance fitness": "-0.096 ± 0.11"}
{"variant": "AVCQRCQARFSPAERIVNSNGRLYHEHCFVCAQCFRPFPEGLFYEFEGRKYCEHDFQML", "abundance fitness": "0.537 ± 0.053"}
{"variant": "AVCQRCQARFSPAERIVNSNGDLYHEHCFVCAQCFRPFPEGLFYEFEGRKYCEHDFQML", "abundance fitness": "-0.598 ± 0.24"}
{"variant": "AVCQRCQARFSPAERIVNSNGWLYHEHCFVCAQCFRPFPEGLFYEFEGRKYCEHDFQML", "abundance fitness": "-0.31 ± 0.088"}
{"variant": "AVCQRCQARFSPAERIVNSNGNLYHEHCFVCAQCFRPFPEGLFYEFEGRKYCEHDFQML", "abundance fitness": "0.053 ± 0.1"}
{"variant": "AVCQRCQARFSPAERIVNSNGYLYHEHCFVCAQCFRPFPEGLFYEFEGRKYCEHDFQML", "abundance fitness": "-0.08 ± 0.1"}
{"variant": "AVCQRCQARFSPAERIVNSNGVLYHEHCFVCAQCFRPFPEGLFYEFEGRKYCEHDFQML", "abundance fitness": "-0.098 ± 0.091"}
{"variant": "AVCQRCQARFSPAERIVTSNGELYHEHCFVCAQCFRPFPEGLFYEFEGRKYCEHDFQML", "abundance fitness": "-0.312 ± 0.096"}
{"variant": "AVCQRCQARFSPAERIVSSNGELYHEHCFVCAQCFRPFPEGLFYEFEGRKYCEHDFQML", "abundance fitness": "-0.333 ± 0.07"}
{"variant": "AVCQRCQARFSPAERIVRSNGELYHEHCFVCAQCFRPFPEGLFYEFEGRKYCEHDFQML", "abundance fitness": "-0.202 ± 0.072"}
{"variant": "AVCQRCQARFSPAERIVWSNGELYHEHCFVCAQCFRPFPEGLFYEFEGRKYCEHDFQML", "abundance fitness": "-0.639 ± 0.12"}
{"variant": "AVCQRCQARFSPAERIVPSNGELYHEHCFVCAQCFRPFPEGLFYEFEGRKYCEHDFQML", "abundance fitness": "-0.191 ± 0.086"}
{"variant": "AVCQRCQARFSPAERIVQSNGELYHEHCFVCAQCFRPFPEGLFYEFEGRKYCEHDFQML", "abundance fitness": "-0.06 ± 0.084"}
{"variant": "AVCQRCQARFSPAERIVVSNGELYHEHCFVCAQCFRPFPEGLFYEFEGRKYCEHDFQML", "abundance fitness": "-0.316 ± 0.08"}
{"variant": "AVCQRCQARFSPAERIVYSNGELYHEHCFVCAQCFRPFPEGLFYEFEGRKYCEHDFQML", "abundance fitness": "-0.603 ± 0.23"}
{"variant": "AVCQRCQARFSPAERIVMSNGELYHEHCFVCAQCFRPFPEGLFYEFEGRKYCEHDFQML", "abundance fitness": "-0.323 ± 0.12"}
{"variant": "AVCQRCQARFSPAERIVNSTGELYHEHCFVCAQCFRPFPEGLFYEFEGRKYCEHDFQML", "abundance fitness": "-0.085 ± 0.11"}
{"variant": "AVCQRCQARFSPAERIVNSAGELYHEHCFVCAQCFRPFPEGLFYEFEGRKYCEHDFQML", "abundance fitness": "-0.005 ± 0.087"}
{"variant": "AVCQRCQARFSPAERIVNSFGELYHEHCFVCAQCFRPFPEGLFYEFEGRKYCEHDFQML", "abundance fitness": "-0.359 ± 0.17"}
{"variant": "AVCQRCQARFSPAERIVNSGGELYHEHCFVCAQCFRPFPEGLFYEFEGRKYCEHDFQML", "abundance fitness": "0.084 ± 0.065"}
{"variant": "AVCQRCQARFSPAERIVNSCGELYHEHCFVCAQCFRPFPEGLFYEFEGRKYCEHDFQML", "abundance fitness": "-0.038 ± 0.1"}
{"variant": "AVCQRCQARFSPAERIVNSPGELYHEHCFVCAQCFRPFPEGLFYEFEGRKYCEHDFQML", "abundance fitness": "-0.528 ± 0.12"}
{"variant": "AVCQRCQARFSPAERIVNSRGELYHEHCFVCAQCFRPFPEGLFYEFEGRKYCEHDFQML", "abundance fitness": "-0.161 ± 0.065"}
{"variant": "AVCQRCQARFSPAERIVNSKGELYHEHCFVCAQCFRPFPEGLFYEFEGRKYCEHDFQML", "abundance fitness": "0.797 ± 0.096"}
{"variant": "AVCQRCQARFSPAERIVNSQGELYHEHCFVCAQCFRPFPEGLFYEFEGRKYCEHDFQML", "abundance fitness": "-0.116 ± 0.11"}
{"variant": "AVCQRCQARFSPAERIVNSLGELYHEHCFVCAQCFRPFPEGLFYEFEGRKYCEHDFQML", "abundance fitness": "-0.136 ± 0.062"}
{"variant": "AVCQRCQARFSPAERIVNSDGELYHEHCFVCAQCFRPFPEGLFYEFEGRKYCEHDFQML", "abundance fitness": "0.313 ± 0.15"}
{"variant": "AVCQRCQARFSPAERIVNSSGELYHEHCFVCAQCFRPFPEGLFYEFEGRKYCEHDFQML", "abundance fitness": "0.087 ± 0.067"}
{"variant": "AVCQRCQARFSPAERIVNSHGELYHEHCFVCAQCFRPFPEGLFYEFEGRKYCEHDFQML", "abundance fitness": "0.087 ± 0.11"}
{"variant": "AVCQRCQARFSPAERIVNSIGELYHEHCFVCAQCFRPFPEGLFYEFEGRKYCEHDFQML", "abundance fitness": "-0.482 ± 0.2"}
{"variant": "AVCQRCQARFSPAERIVNSYGELYHEHCFVCAQCFRPFPEGLFYEFEGRKYCEHDFQML", "abundance fitness": "-0.376 ± 0.15"}
{"variant": "AVCQRCQARFSPAERIVNSEGELYHEHCFVCAQCFRPFPEGLFYEFEGRKYCEHDFQML", "abundance fitness": "-0.282 ± 0.11"}
{"variant": "AVCQRCQARFSPAERIVNSMGELYHEHCFVCAQCFRPFPEGLFYEFEGRKYCEHDFQML", "abundance fitness": "-0.155 ± 0.1"}
